This is an account of results in patent US5851983A, “Elastase inhibitory polypeptide and process for production thereof by recombinant gene technology” (Teijin Limited, priority 1987, dated 1998).

For data set [1], the target named is T1, polymorphonuclear leucocyte elastase from human sputum (Homo sapiens, UniProt P08246).
T1 construct: Polymorphonuclear leukocyte elastase from human sputum (EPC Co; Funakoshi Yakuhin); purchased EPC Co. (via Funakoshi Yakuhin); host or cells: human sputum
T1 sequence (P08246 30-267): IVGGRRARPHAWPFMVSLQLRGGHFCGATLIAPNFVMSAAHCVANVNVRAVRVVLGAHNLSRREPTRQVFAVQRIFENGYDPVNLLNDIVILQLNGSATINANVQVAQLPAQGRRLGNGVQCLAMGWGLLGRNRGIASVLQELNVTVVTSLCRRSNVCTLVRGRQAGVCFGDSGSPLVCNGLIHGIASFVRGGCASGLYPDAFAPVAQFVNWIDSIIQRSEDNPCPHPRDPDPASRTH
Put plainly: Treatment with polymorphonuclear leucocyte elastase from human sputum (Examples 27, 30). To be noted: 37° C.; N-terminal sequencing of SDS-PAGE bands. It is filed as in vitro ADME. As for the experimental part:
Polymorphonuclear leucocyte elastase from human sputum (EPC, Funakoshi Yakuhin) and SLPI were separately dissolved in a buffer (0.1M HEPES, 0.1M NaCl, 0.1% PEG 6000, pH 7.5) and the elastase solution was added to the SLPI solution, and the mixture was incubated at 37° C. Samples were taken as time elapsed, and to each sample were added Tris-HCl buffer (pH 6.8), SDS, 2-mercaptolethanol, glycerol, and Coomassie Brilliant Blue to final concentrations of 50 mM, 4 w/v %, 2 v/v %, 12 v/v % and 0.01 w/v % respectively. The mixture was subjected to SDS-polyacrylamide gel electrophoresis using Tricine (Sigma) as a polar buffer (Schagger, H., Anal. Biochem. 166, 368, 1987). After the electrophoresis, the gel was stained with Coomassie Brilliant Blue G-250, and decoloured with 50% (v/v) methanol/10% (v/v) acetic acid. […]
(3) Next, polypeptides thus generated were electrically transferred to a membrane (Immobilon-p^SQ Millipore) using a Milli Blot-SDE apparatus (Millipore). […] After drying, relevant bands were cut out, and the peptide was cleaved from the N-terminal using an Applied Biosystems Protein-Sequencer (Applied Biosystems; 477A), and after PTH-conversion, the resulting amino acid derivatives were analyzed by a PTH-Amino acid analyzer (Applied Biosystems, 120A) to determine the N-terminal amino acid sequence. […]

Data set [2] is described as follows: Partial hydrolysis with healthy human saliva (Examples 15, 16). It is filed as in vitro ADME. The settings on record: 37° C. On the procedure:
Healthy human saliva was filtered through a 0.22 μm filter (Milex GS, Milipore), and in the filtrate was dissolved 1 mg/ml of the SLPI prepared in Reference Example 1. The mixture was then incubated at 37° C. for 30 days. As a control, the SLPI was dissolved in physiological saline (Physisalz; Fuso Yakuhin Kogyo), and the mixture was incubated at 37° C. for 30 days.
With an elapse of time, samples were taken and to each sample were added a Tris-HCl buffer (pH 6.8), SDS, 2-mercaptoethamel and glycerol, to final concentration of 60 mM, 2% by weight, 4% by weight and 10% by weight, respectively, and the mixture was subjected to an SDS-PAGE (U.K. Laemmli, Nature, 227, 680, 1970). The gel after electrophoresis was stained with Coomussie Brilliant Blue.
Next, polypeptides in the polyacrylamide gel thus obtained were electrically transferred to a membrane (Immobilon; Milipore) using a Milli Blot-SDE apparatus. After the transfer, the membrane was stained with 0.1% by weight of Coomassie Blue in 40% by weight methanol/1% by weight acetic acid, and washed with water. Then, after air drying, the bands b, c, d and e were excised, and for each band, the PTH-amino acids were cleaved from the N-terminus with an Applied Biosystems Protein Sequences (Applied Biosystems; 470A) and analysed with a PTH analyser (Applied Biosystems, 120A) to determine an amino acid sequence for 10 amino acids from the N-terminus.
According to the same procedure as described in Example 15, (Asn^55 -Ala^107) SLPI prepared in Example 11 was treated with healthy human saliva at 37° C., and a result is shown in FIG. 13. […] After 12 hours, a new band g (MW about 5,500) appeared.
Next, according to the same procedure as described in Example 15, the band g was electrically transferred to a membrane and N-terminal amino acid sequence was analyzed. […] The 6th amino acid could not be determined. The N-terminal amino acid sequence of the band g corresponds to an amino acid sequence starting from Arg^59 of SLPI.

For “(Asn^55 -Ala^107) SLPI: polypeptide having an amino acid sequence starting with the 55th Asn and ending at the 107th Ala of SLPI (NPTRRKPGKCPVTYGQCLMLNPPNFCEMDGQCKRDLKCCMGMCGKSCVSPVKA)”, the “selective cleavage sites with elastase from human sputum” value in data set [1] was “cleaved at the site between Thr^57 -Arg^58”. In data set [2] (96 hours), the “SDS-PAGE band after incubation in physiological saline without saliva” value is “only the band f having an MW of about 5,800 remained”. Also, in data set [2] (96 hours, band f = starting polypeptide, band g MW about 5,500), the “SDS-PAGE bands after incubation in healthy human saliva” value is “only the band g remained after 96 hours of incubation”. In addition, the “cleavage sites in healthy human saliva” value in data set [2] (SDS-PAGE bands, N-terminal sequencing) is reported as “cleaved at a site between Arg^58 -Arg^59”.
